{
  "source": "patent US20260266848A1",
  "about": "“COMPOSITIONS AND METHODS FOR DIAGNOSING AND TREATING DYSTONIA” (Duke University, priority 2023, published 2026)",
  "key": {"DYT-TOR1A MEF EVs": {"tested_on": "DYT-TOR1A MEF EVs", "test": "Quantitative LC-MS/MS proteomics of EVs from drug-treated DYT-TOR1A MEF cultures (ritonavir, salubrinal)", "format": "cell-based, mouse", "set-up": "key to RTV Corrective Direction / RTV Corrective Direction, Grwd1 / RTV Corrective Direction, Srrm2 / RTV Corrective Direction, Rbm17 / RTV Corrective Direction, Dcaf8 / RTV Corrective Direction, Edil3 / RTV Corrective Direction, Timp3 / RTV Corrective Direction, Heatr3 / RTV Corrective Direction, Brd4 / RTV Corrective Direction, P3h4 / RTV Corrective Direction, Pacsin3 / RTV Corrective Direction, Naa50 / RTV Corrective Direction, Lpar6 / RTV Corrective Direction, Ndrg1 / RTV Corrective Direction, Kntc1 / RTV Corrective Direction, Cdk11b / RTV Corrective Direction, Sumo1 / RTV Corrective Direction, Lsm4 / RTV Corrective Direction, Hmga2 / RTV Corrective Direction, Cstf1 / RTV Corrective Direction, Tes / RTV Corrective Direction, Sbno1 / RTV Corrective Direction, Unc119b / RTV Corrective Direction, Cfdp1 / RTV Corrective Direction, Sec61b: YES = protein abundance effect opposite to DYT/WT", "details": "EV protein abundance; for RTV Corrective Direction: DYT + RTV (ritonavir) vs DYT, direction compared with DYT/WT; for DYT + RTV/DYT Cohen's d: ritonavir (RTV)-treated DYT vs DYT"}, "WT MEF EVs": {"tested_on": "WT MEF EVs", "test": "Quantitative LC-MS/MS proteomics of EVs from ISRIB-treated WT MEF cultures", "format": "cell-based, mouse", "set-up": "key to ISRIB and DYT Parallel Direction / ISRIB and DYT Parallel Direction, Ctdsp1 / ISRIB and DYT Parallel Direction, Pcdh19 / ISRIB and DYT Parallel Direction, Tspan7 / ISRIB and DYT Parallel Direction, Myo1e / ISRIB and DYT Parallel Direction, Plpp3 / ISRIB and DYT Parallel Direction, Sh3bp4 / ISRIB and DYT Parallel Direction, Dnajc7 / ISRIB and DYT Parallel Direction, Drg1 / ISRIB and DYT Parallel Direction, Maea: YES = protein abundance effect similar to DYT/WT", "details": "EV protein abundance; for WT + ISRIB/WT Cohen's d: ISRIB-treated WT vs WT; for ISRIB and DYT Parallel Direction: WT + ISRIB vs WT, direction compared with DYT/WT"}},
  "data": [
    {"molecule": "Mcm2 (protein, UniProt P97310 2-904, looked up) DNA replication licensing …: AESSESLSASSPARQRRRISDPLTSSPGRSSRRADALTSSPGRDLPPFEDESEGLLGTEGPMEEEEDGEELIGDGMERDYRPIPELDVYEAEGLALDDEDVEELTASQREAAERTMRQRDREAGRGLGRMRRGLLYDSSEEDEERPARKRRHVERATEDGEEDEEMIESIENLEDLKGHSVREWVSMAGPRLEIHHRFKNFLRTHVDSHGHNVFKERISDMCKENRESLVVNYEDLAAREHVLAYFLPEAPAELLQIFDEAALEVVLAMYPKYDRITNHIHVRISHLPLVEELRSLRQLHLNQLIRTSGVVTSCTGVLPQLSMVKYNCSKCNFVLGPFCQSQNQEVKPGSCPECQSAGPFEINMEETIYQNYQRIRIQESPGKVAAGRLPRSKDAILLADLVDSCKPGDEIELTGIYHNNYDGSLNTANGFPVFATIILANHVAKKDNKVAVGELTDEDVKMITGLSKDQQIGEKIFASIAPSIYGHEDIKRGLALALFGGEPKNPGGKHKVRGDINVLLCGDPGTAKSQFLKYIEKVSSRAIFTTGQGASAVGLTAYVQRHPVSREWTLEAGALVLADRGVCLIDEFDKMNDQDRTSIHEAMEQQSISISKAGIVTSLQARCTVIAAANPIGGRYDPSLTFSENVDLTEPIISRFDVLCVVRDTVDPVQDEMLARFVVGSHVRHHPSNKKDEGLTNGGTLEPAMPNTYGVEPLPQEVLKKYIIYAKERVRPKLNQMDQDKVARMYSDLRKESMATGSIPITVRHIESMIRMAEAHARMHLRDYVMEDDVNMAIRVMMESFIDTQKFSVMRSMRKTFARYLSFRRDNNDLLLFILKQLVAEQVTYQRNRFGAQQDTIEIPEKDLMDKARQINIHNLSAFYDSDLFKFNKFSRDLKRKLILQQF", "values": [
      {"measurement": "RTV Corrective Direction", "setting": "DYT-TOR1A MEF EVs", "value": "YES"},
      {"measurement": "DYT + RTV/DYT Cohen's d", "setting": "DYT-TOR1A MEF EVs", "value": 3.96},
      {"measurement": "WT + ISRIB/WT Cohen's d", "setting": "WT MEF EVs", "value": "−2.10"},
      {"measurement": "ISRIB and DYT Parallel Direction", "setting": "WT MEF EVs", "value": "YES"}
    ]},
    {"molecule": "Aco1 (protein, UniProt P28271 1-889, looked up) Cytoplasmic aconitate …: MKNPFAHLAEPLDAAQPGKRFFNLNKLEDSRYGRLPFSIRVLLEAAVRNCDEFLVKKNDIENILNWNVMQHKNIEVPFKPARVILQDFTGVPAVVDFAAMRDAVKKLGGNPEKINPVCPADLVIDHSIQVDFNRRADSLQKNQDLEFERNKERFEFLKWGSQAFCNMRIIPPGSGIIHQVNLEYLARVVFDQDGCYYPDSLVGTDSHTTMIDGLGVLGWGVGGIEAEAVMLGQPISMVLPQVIGYKLMGKPHPLVTSTDIVLTITKHLRQVGVVGKFVEFFGPGVAQLSIADRATIANMCPEYGATAAFFPVDEVSIAYLLQTGREEDKVKHIQKYLQAVGMFRDFNDTSQDPDFTQVVELDLKTVVPCCSGPKRPQDKVAVSEMKKDFESCLGAKQGFKGFQVAPDRHNDRKTFLYSNSEFTLAHGSVVIAAITSCTNTSNPSVMLGAGLLAKKAVEAGLSVKPYIKTSLSPGSGVVTYYLRESGVMPYLSQLGFDVVGYGCMTCIGNSGPLPEPVVEAITQGDLVAVGVLSGNRNFEGRVHPNTRANYLASPPLVIAYAIAGTVRIDFEKEPLGVNAQGRQVFLKDIWPTRDEIQAVERQHVIPGMFKEVYQKIETVNKSWNALAAPSEKLYAWNPKSTYIKSPPFFESLTLDLQPPKSIVDAYVLLNLGDSVTTDHISPAGNIARNSPAARYLTNRGLTPREFNSYGSRRGNDAIMARGTFANIRLLNKFLNKQAPQTVHLPSGETLDVFDAAERYQQAGLPLIVLAGKEYGSGSSRDWAAKGPFLLGIKAVLAESYERIHRSNLVGMGVIPLEYLPGETADSLGLTGRERYTINIPEDLKPRMTVQIKLDTGKTFQAVMRFDTDVELTYFHNGGILNYMIRKMAQ", "values": [
      {"measurement": "RTV Corrective Direction", "setting": "DYT-TOR1A MEF EVs", "value": "YES"},
      {"measurement": "DYT + RTV/DYT Cohen's d", "setting": "DYT-TOR1A MEF EVs", "value": 3.33},
      {"measurement": "WT + ISRIB/WT Cohen's d", "setting": "WT MEF EVs", "value": "−1.03"},
      {"measurement": "ISRIB and DYT Parallel Direction", "setting": "WT MEF EVs", "value": "YES"}
    ]},
    {"molecule": "Pdia6 (protein, UniProt Q922R8 20-440, looked up) Protein disulfide-isomerase A6: LYSSSDDVIELTPSNFNREVIQSDGLWLVEFYAPWCGHCQRLTPEWKKAATALKDVVKVGAVNADKHQSLGGQYGVQGFPTIKIFGANKNKPEDYQGGRTGEAIVDAALSALRQLVKDRLGGRSGGYSSGKQGRGDSSSKKDVVELTDDTFDKNVLDSEDVWMVEFYAPWCGHCKNLEPEWAAAATEVKEQTKGKVKLAAVDATVNQVLASRYGIKGFPTIKIFQKGESPVDYDGGRTRSDIVSRALDLFSDNAPPPELLEIINEDIAKKTCEEHQLCVVAVLPHILDTGAAGRNSYLEVLLKLADKYKKKMWGWLWTEAGAQYELENALGIGGFGYPAMAAINARKMKFALLKGSFSEQGINEFLRELSFGRGSTAPVGGGSFPTITPREPWDGKDGELPVEDDIDLSDVELDDLEKDEL", "values": [
      {"measurement": "RTV Corrective Direction", "setting": "DYT-TOR1A MEF EVs", "value": "YES"},
      {"measurement": "DYT + RTV/DYT Cohen's d", "setting": "DYT-TOR1A MEF EVs", "value": 3.27},
      {"measurement": "WT + ISRIB/WT Cohen's d", "setting": "WT MEF EVs", "value": "−1.84"},
      {"measurement": "ISRIB and DYT Parallel Direction", "setting": "WT MEF EVs", "value": "YES"}
    ]},
    {"molecule": "Ddr2 (protein, UniProt Q62371 22-854, looked up) Discoidin domain-containing …: KAQVNPAICRYPLGMSGGHIPDEDITASSQWSESTAAKYGRLDSEEGDGAWCPEIPVQPDDLKEFLQIDLRTLHFITLVGTQGRHAGGHGIEFAPMYKINYSRDGSRWISWRNRHGKQVLDGNSNPYDVFLKDLEPPIVARFVRLIPVTDHSMNVCMRVELYGCVWLDGLVSYNAPAGQQFVLPGGSIIYLNDSVYDGAVGYSMTEGLGQLTDGVSGLDDFTQTHEYHVWPGYDYVGWRNESATNGFIEIMFEFDRIRNFTTMKVHCNNMFAKGVKIFKEVQCYFRSEASEWEPTAVYFPLVLDDVNPSARFVTVPLHHRMASAIKCQYHFADTWMMFSEITFQSDAAMYNNSGALPTSPMAPTTYDPMLKVDDSNTRILIGCLVAIIFILLAIIVIILWRQFWQKMLEKASRRMLDDEMTVSLSLPSESSMFNNNRSSSPSEQESNSTYDRIFPLRPDYQEPSRLIRKLPEFAPGEEESGCSGVVKPAQPNGPEGVPHYAEADIVNLQGVTGGNTYCVPAVTMDLLSGKDVAVEEFPRKLLAFKEKLGEGQFGEVHLCEVEGMEKFKDKDFALDVSANQPVLVAVKMLRADANKNARNDFLKEIKIMSRLKDPNIIRLLAVCITEDPLCMITEYMENGDLNQFLSRHEPLSSCSSDATVSYANLKFMATQIASGMKYLSSLNFVHRDLATRNCLVGKNYTIKIADFGMSRNLYSGDYYRIQGRAVLPIRWMSWESILLGKFTTASDVWAFGVTLWETFTFCQEQPYSQLSDEQVIENTGEFFRDQGRQIYLPQPALCPDSVYKLMLSCWRRETKHRPSFQEIHLLLLQQGAE", "values": [
      {"measurement": "RTV Corrective Direction", "setting": "DYT-TOR1A MEF EVs", "value": "YES"},
      {"measurement": "DYT + RTV/DYT Cohen's d", "setting": "DYT-TOR1A MEF EVs", "value": 0.93},
      {"measurement": "WT + ISRIB/WT Cohen's d", "setting": "WT MEF EVs", "value": "−7.89"},
      {"measurement": "ISRIB and DYT Parallel Direction", "setting": "WT MEF EVs", "value": "YES"}
    ]},
    {"molecule": "Srp68 (protein, UniProt Q8BMA6 1-625, looked up) Signal recognition particle …: MAAEKQIPGGGSGGGGSGSGGGGGGSGGGRSAGGDENKENERPSAGSKANKEFGDSLSLEILQIIKESQQQHGLRHGDFQRYRGYCSRRQRRLRKTLNFKMGNRHKFTGKKVTEELLTDNRYLLLVLMDAERAWSYAMQLKQEANTEPRKRFHLLSRLRKAVKHAEELERLCESNRVDAKTKLEAQAYTAYLSGMLRFEHQEWKSAIEAFNKCKTIYEKLASAFTEEQAVLYNQRVEEISPNIRYCAYNIGDQSAINELMQMRLRSGGTEGLLAEKLEALITQTRAKQAATMSEVEWRGRTVPVKIDKVRIFLLGLADNEAAIVQAESEETKERLFESMLSECRDALQAVREELKPDQKQRDYALDGESGKVSNLQYLHSYLTYIKLSTAIRRNENMAKGLHRALLQQQPEDDSKRSPRPQDLIRLYDIILQNLVELLQLPGLEEDRTFQKEISLKTLVFKAYRCFFIAQSYVLVKKWSEALVLYDRVLKYANEVSSHGGASKNSLKDLPDVQELITQVRSEKCSLQAAAILDANDSHQTDTSSQVKDNTPLVERFESFCLDPSLVTKQANLVHFPPGFQPIPCKPLFFDLALNHVAFPPLEDKLEQKTKSGLTGYIKGIFGFRS", "values": [
      {"measurement": "RTV Corrective Direction", "setting": "DYT-TOR1A MEF EVs", "value": "YES"},
      {"measurement": "DYT + RTV/DYT Cohen's d", "setting": "DYT-TOR1A MEF EVs", "value": 2.70},
      {"measurement": "WT + ISRIB/WT Cohen's d", "setting": "WT MEF EVs", "value": "−1.21"},
      {"measurement": "ISRIB and DYT Parallel Direction", "setting": "WT MEF EVs", "value": "YES"}
    ]}
  ]
}
